{"source": "the nanobody polyreactivity screen of Harvey et al. (2022)", "data": [{"assay": "yeast display, Sf9 membrane polyspecificity reagent, FACS + sequencing; frameworks hold sequencing errors", "outline": "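A synthetic nanobody library was expressed on Saccharomyces cerevisiae BJ5465 by galactose induction for 36–48 hours. The library was stained for 1 hour at 4 °C with 10% biotinylated, detergent-solubilized Sf9 membrane reagent and enriched with streptavidin microbeads before FACS. Low and high (top ~1%) gates were set on anti-HA fluorescence for expression and streptavidin fluorescence for reagent binding, and each polyreactivity label reflects the gate of origin.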", "values": [{"sequence": "QVQLVESGGGLVQAGGSLRLSCAASGFIFAYNIIGWSRHAPGTERELVADISGTGSTNYADSVKGRFTISRDNAKNTVYLQMNSLKPEDTAVYYCAAAKFDVSFWLYFWGQGTQVTVSS", "polyreactivity (PSR sort gate)": "low polyreactivity"}, {"sequence": "QVQLVESGGGLVQAGGSLRLSCAASGFIFAYYAMGWYIQAPGKERELVAAISLSGARTYYADSVKGRFTISRDTAKNTVYLQMNSLKPEDTAVYYCAATPWSYEYYYWGQGTQVTVSS", "polyreactivity (PSR sort gate)": "low polyreactivity"}, {"sequence": "QVQLVESGGGLVQAGGSLRLSCAASGFIFAYYAMGWYRQAPGKERELVAGINRTGSTNYADSVKGRFSISRDNAKNTVYLQMNSLKPEDTAVYYCAARGYRSGGGYNYWGQGTQVTVSS", "polyreactivity (PSR sort gate)": "high polyreactivity"}, {"sequence": "QVQLVESGGGLVQAGGSLRLSCAASGFIFDANAMGWYRQAPGKERELVAAISRRGGRTYYADSVKGRFTISRDNAKNTVYLQMNSLKPEDTAVYYCAADWPDASRYGGGYWGQGTQVTVSS", "polyreactivity (PSR sort gate)": "high polyreactivity"}, {"sequence": "QVQLVESGGGLVQAGGSLRLSCAASGFIFDDNTMGWYRQAPGKERELVAAISYSAGSTYYADSVKGRFTISRDNAKNTVYLQMNSLKPEDTAVYYCNKDAASWDYYGGNDYWGQGTQVTVSS", "polyreactivity (PSR sort gate)": "low polyreactivity"}, {"sequence": "QVQLVESGGGLVQAGGSLRLSCAASGFIFDLYAMGWYRQAPGKERELVAAITTSGGTTYYADSVKGRFTISRDNAKNTVYLQMNSLKPEDTAVYYCAARRYSWYYYWGQGTQVTVSS", "polyreactivity (PSR sort gate)": "high polyreactivity"}, {"sequence": "QVQLVESGGGLVQAGGSLRLSCAASGFIFDPYGMGWYRQAPGKERELVAAITASGGTTYYADSVKGRFTISLDYANNTVYLQLNSLKPEDTAVYYCAAAVWYRGWYRYDYWGQGTKVTVSS", "polyreactivity (PSR sort gate)": "low polyreactivity"}, {"sequence": "QVQLVESGGGLVQAGGSLRLSCAASGFIFDQYAMGWYRQAPGKERELVATITSDGDTYYADSVKGRFTISRDNAKNTVYLQMNSLKPDDTAFYYFAVDPGPYTTGYEYWGQGTQLTVSS", "polyreactivity (PSR sort gate)": "low polyreactivity"}, {"sequence": "QVQLVESGGGLVQAGGSLRLSCAASGFIFDRYAMGWSRQAPGKERELVAAITGSGGSTYYADSVKGRFTISRDNAKNTVYFQMNSLKPEDTAVYYSAAESYDYFALFYVSIPYYYWGQGTQVTVSS", "polyreactivity (PSR sort gate)": "high polyreactivity"}, {"sequence": "QVQLVESGGGLVQAGGSLRLSCAASGFIFDSNAMGWYRQAPGKERELVAAISRRGGSTYYADSVKGRFTISRDNAKNTVYLQMNSLKPEDTAVYYCNAEYGSHVKYGYWGQGTQVTVSS", "polyreactivity (PSR sort gate)": "high polyreactivity"}, {"sequence": "QVQLVESGGGLVQAGGSLRLSCAASGFIFDSYAMGWYRQAPGKERELVAAISWSGGRTYYADSVKWRFTISRDNAKNTVYLQMNSLKPEDTAVYYCNVRTKLSTSYDYWGQGTQVTVSS", "polyreactivity (PSR sort gate)": "high polyreactivity"}, {"sequence": "QVQLVESGGGLVQAGGSLRLSCAASGFIFDSYAMGWYRQAPGKVRELVATISRRGSSTYYADSVKGRFTISRDNAKNTVYLQMNSLKPEDNAVYYCAAGSISYYYKLYWGGYWGQGTQVTVSS", "polyreactivity (PSR sort gate)": "high polyreactivity"}, {"sequence": "QVQLVESGGGLVQAGGSLRLSCAASGFIFDYNAMGWYRQAPGKERELVAAIDITGGSTYYADSVKGRFTISRDNAKNTVYLQMNSLKPEDTAVYYCNRPYYIWVYSGYSGYDYWGQGTQVTVSS", "polyreactivity (PSR sort gate)": "low polyreactivity"}, {"sequence": "QVQLVESGGGLVQAGGSLRLSCAASGFIFDYNAMGWYRQAPGKERELVAAISISGGGTYYADSVKGRFTISRDNAKNTVYLQMNSLKPEDTAVYYCATAGRYDAYDYWGQGTQVTVSS", "polyreactivity (PSR sort gate)": "low polyreactivity"}, {"sequence": "QVQLVESGGGLVQAGGSLRLSCAASGFIFDYYAMGWYRQAPGKERELVAAISRGGSTYYADSVKGRFTISRDNAKNTVYLQMKSLKPEDTAVYYCKAMSYHFWEFDYWGQGTQVTVSS", "polyreactivity (PSR sort gate)": "high polyreactivity"}, {"sequence": "QVQLVESGGGLVQAGGSLRLSCAASGFIFDYYAMGWYRQAPGKERELVAAITSRGGSTYYADSVKGRFTISRDNAKNTVYLQMNSLKPEDTAVYYCAARRRYAEYNYWGQGTQVTVSS", "polyreactivity (PSR sort gate)": "high polyreactivity"}, {"sequence": "QVQLVESGGGLVQAGGSLRLSCAASGFIFDYYAMGWYRQAPGKERELVAGISNGDTTYYADSVKGRFTISRDNAKNTVYLQMNSLKPEDTAVYYCNAKPFYWVLGGYDYWGQGTQVTVSS", "polyreactivity (PSR sort gate)": "low polyreactivity"}, {"sequence": "QVQLVESGGGLVQAGGSLRLSCAASGFIFDYYAMGWYRQAPGKERELVAGISWSGGSTYYADSVKGRFTISRDNAKNTVYLQMNSLKPEDTAVYYCNAEYSVPFYLYYYWGQGTQVTVSS", "polyreactivity (PSR sort gate)": "low polyreactivity"}, {"sequence": "QVQLVESGGGLVQAGGSLRLSCAASGFIFDYYAMGWYRQAPGKERELVATISSSGGSTYYADSVKGRFTISRDNAKNTVYLQMNSLKPEDTAVYYCATGYTWVADSWEYYYWGQGTQVTVSS", "polyreactivity (PSR sort gate)": "low polyreactivity"}, {"sequence": "QVQLVESGGGLVQAGGSLRLSCAASGFIFETNAMGWYRQAPGKERELVAAISSRGGSTYYADSVKGRFTISRDNAKNTVYLQMNSLKPEDTAVYYCAAKLVVSYGQEYDYWGQGTHVTVSS", "polyreactivity (PSR sort gate)": "low polyreactivity"}, {"sequence": "QVQLVESGGGLVQAGGSLRLSCAASGFIFEWNGMGWYRQAPGKERELVAAITWSGGSTYYADSVKGRFTISRDNAKNTVYLQMISLKPEDTAVYYCAADFPEYYLPYDNWGQGTQVTVSS", "polyreactivity (PSR sort gate)": "low polyreactivity"}, {"sequence": "QVQLVESGGGLVQAGGSLRLSCAASGFIFFAYAMGWYRQAPGKERELVAAISRTGGSTYYADSVKGRFTISRDNAKNTVYLEMNSLKPEDTAVYYCAAVVSRTYQWWTYDYWGQGTQVTVSS", "polyreactivity (PSR sort gate)": "high polyreactivity"}, {"sequence": "QVQLVESGGGLVQAGGSLRLSCAASGFIFFAYAMGWYRQAPGKERELVAAISSSGTRTYYADSVKGRFTISRDNAKNTVYLQMNSLKPEDTAVYYCARYIPVYTREREYNYWGQGTQVTVSS", "polyreactivity (PSR sort gate)": "high polyreactivity"}, {"sequence": "QVQLVESGGGLVQAGGSLRLSCAASGFIFFGEYVMGWYRQAPGKERELVAAITWSGGSTSYADSVKGRFTISRDNAKNTVYLQMNSLKPEDTAVYYCNAVSHFSTAIEFDYWGQGTQVTVSS", "polyreactivity (PSR sort gate)": "low polyreactivity"}, {"sequence": "QVQLVESGGGLVQAGGSLRLSCAASGFIFFGEYVRGWYRQAPRKEREFVAAITDSDGSTYYADSVKGRFTISRDNAKNTVYLQMNSLKPEDTAVYYCAAERVYSDIDYWGKGTQVTVSS", "polyreactivity (PSR sort gate)": "low polyreactivity"}, {"sequence": "QVQLVESGGGLVQAGGSLRLSCAASGFIFFGYAMGWYRQAPGKERELVAAITSGGSTYYADSVKGRFTISRDNAKNTVYLQMNSLKPEDTAVYYCAAVRWYGSKRYGYWGQGTQVTVSS", "polyreactivity (PSR sort gate)": "high polyreactivity"}, {"sequence": "QVQLVESGGGLVQAGGSLRLSCAASGFIFFINDMGWYRQAPGKERELVAAISWSGGSTYYADSVKGRFTISRDNAKNTVYLQMNSLKPEDTAVYYCAADWLIYDLSRFDYWGQGTQVTVSS", "polyreactivity (PSR sort gate)": "low polyreactivity"}, {"sequence": "QVQLVESGGGLVQAGGSLRLSCAASGFIFFPYTMGWYRQAPGKERELVAAITNGGSTSYADSVKGRFTISRDNAKNTVYLQMNSLKPEDTAVYYCAADLGRNLLHTFYYWGQGTQVTVSS", "polyreactivity (PSR sort gate)": "low polyreactivity"}, {"sequence": "QVQLVESGGGLVQAGGSLRLSCAASGFIFFVNAMGWYRQAPGKEREFVATITGSGGSTYYADSVKGRFTISRDNAKNTVYLQMYSLKPEDTAVYYCNAETYIDLRGKFPVEYDYWGQGTQVTVSS", "polyreactivity (PSR sort gate)": "low polyreactivity"}, {"sequence": "QVQLVESGGGLVQAGGSLRLSCAASGFIFGANAMGWYRPAPGKERELVAAITWSAGRTYYADSVKGRFTISRVNAKNTVYLKMNSLKREDSAVYYCAKQRARQSPEVGYWGQGTQVTVSS", "polyreactivity (PSR sort gate)": "high polyreactivity"}, {"sequence": "QVQLVESGGGLVQAGGSLRLSCAASGFIFGAYSMGWYRQAPGKERELVADITQNSGSTYYADSVKGRFTISRDNAKNTVYLQMNSLKPEDTAVYYCNAPPGTFQWQGHSDYWGQGTQVTVSS", "polyreactivity (PSR sort gate)": "low polyreactivity"}, {"sequence": "QVQLVESGGGLVQAGGSLRLSCAASGFIFGDYAMGWYRQAPGKERELVAAINYSGGSTYYADSVKGRFTISRDNAKNTGYLQMNSLKPEDTAVYYCAALIYGLVGWGQGTQVTVSS", "polyreactivity (PSR sort gate)": "low polyreactivity"}]}]}
